From paper PMC4790104 (Analytical chemistry, 2016) come the findings set out here.

B1: Nup85 (natural protein, UniProt P46673 1-744, looked up)
chain: MTIDDSNRLLMDVDQFDFLDDGTAQLSNNKTDEEEQLYKRDPVSGAILVPMTVNDQPIEKNGDKMPLKFKLGPLSYQNMAFITAKDKYKLYPVRIPRLDTSKEFSAYVSGLFEIYRDLGDDRVFNVPTIGVVNSNFAKEHNATVNLAMEAILNELEVFIGRVKDQDGRVNRFYELEESLTVLNCLRTMYFILDGQDVEENRSEFIESLLNWINRSDGEPDEEYIEQVFSVKDSTAGKKVFETQYFWKLLNQLVLRGLLSQAIGCIERSDLLPYLSDTCAVSFDAVSDSIELLKQYPKDSSSTFREWKNLVLKLSQAFGSSATDISGELRDYIEDFLLVIGGNQRKILQYSRTWYESFCGFLLYYIPSLELSAEYLQMSLEANVVDITNDWEQPCVDIISGKIHSILPVMESLDSCTAAFTAMICEAKGLIENIFEGEKNSDDYSNEDNEMLEDLFSYRNGMASYMLNSFAFELCSLGDKELWPVAIGLIALSATGTRSAKKMVIAELLPHYPFVTNDDIEWMLSICVEWRLPEIAKEIYTTLGNQMLSAHNIIESIANFSRAGKYELVKSYSWLLFEASCMEGQKLDDPVLNAIVSKNSPAEDDVIIPQDILDCVVTNSMRQTLAPYAVLSQFYELRDREDWGQALRLLLLLIEFPYLPKHYLVLLVAKFLYPIFLLDDKKLMDEDSVATVIEVIETKWDDADEKSSNLYETIIEADKSLPSSMATLLKNLRKKLNFKLCQAFM
B2: Nup120 (natural protein, UniProt P35729 1-1037, looked up)
chain: MACLSRIDANLLQYYEKPEPNNTVDLYVSNNSNNNGLKEGDKSISTPVPQPYGSEYSNCLLLSNSEYICYHFSSRSTLLTFYPLSDAYHGKTINIHLPNASMNQRYTLTIQEVEQQLLVNVILKDGSFLTLQLPLSFLFSSANTLNGEWFHLQNPYDFTVRVPHFLFYVSPQFSVVFLEDGGLLGLKKVDGVHYEPLLFNDNSYLKSLTRFFSRSSKSDYDSVISCKLFHERYLIVLTQNCHLKIWDLTSFTLIQDYDMVSQSDSDPSHFRKVEAVGEYLSLYNNTLVTLLPLENGLFQMGTLLVDSSGILTYTFQNNIPTNLSASAIWSIVDLVLTRPLELNVEASYLNLIVLWKSGTASKLQILNVNDESFKNYEWIESVNKSLVDLQSEHDLDIVTKTGDVERGFCNLKSRYGTQIFERAQQILSENKIIMAHNEDEEYLANLETILRDVKTAFNEASSITLYGDEIILVNCFQPYNHSLYKLNTTVENWFYNMHSETDGSELFKYLRTLNGFASTLSNDVLRSISKKFLDIITGELPDSMTTVEKFTDIFKNCLENQFEITNLKILFDELNSFDIPVVLNDLINNQMKPGIFWKKDFISAIKFDGFTSIISLESLHQLLSIHYRITLQVLLTFVLFDLDTEIFGQHISTLLDLHYKQFLLLNLYRQDKCLLAEVLLKDSSEFSFGVKFFNYGQLIAYIDSLNSNVYNASITENSFFMTFFRSYIIENTSHKNIRFFLENVECPFYLRHNEVQEFMFAMTLFSCGNFDQSYEIFQLHDYPEAINDKLPTFLEDLKSENYHGDSIWKDLLCTFTVPYRHSAFYYQLSLLFDRNNSQEFALKCISKSAEYSLKEIQIEELQDFKEKQHIHYLNLLIHFRMFEEVLDVLRLGHECLSDTVRTNFLQLLLQEDIYSRDFFSTLLRLCNAHSDNGELYLRTVDIKIVDSILSQNLRSGDWECFKKLYCFRMLNKSERAAAEVLYQYILMQADLDVIRKRKCYLMVINVLSSFDSAYDQWILNGSKVVTLTDLRDELRGL
B3: Sec13 (natural protein, UniProt Q04491 1-297, looked up)
chain: MVVIANAHNELIHDAVLDYYGKRLATCSSDKTIKIFEVEGETHKLIDTLTGHEGPVWRVDWAHPKFGTILASCSYDGKVLIWKEENGRWSQIAVHAVHSASVNSVQWAPHEYGPLLLVASSDGKVSVVEFKENGTTSPIIIDAHAIGVNSASWAPATIEEDGEHNGTKESRKFVTGGADNLVKIWKYNSDAQTYVLESTLEGHSDWVRDVAWSPTVLLRSYLASVSQDRTCIIWTQDNEQGPWKKTLLKEEKFPDVLWRASWSLSGNVLALSGGDNKVTLWKENLEGKWEPAGEVHQ
B4: Nup145C (natural protein, UniProt P49687 606-1317, looked up)
chain: SIWGLVNEEDAEIDEDDLSKQEDGGEQPLRKVRTLAQSKPSDKEVILKTDGTFGTLSGKDDSIVEEKAYEPDLSDADFEGIEASPKLDVSKDWVEQLILAGSSLRSVFATSKEFDGPCQNEIDLLFSECNDEIDNAKLIMKERRFTASYTFAKFSTGSMLLTKDIVGKSGVSIKRLPTELQRKFLFDDVYLDKEIEKVTIEARKSNPYPQISESSLLFKDALDYMEKTSSDYNLWKLSSILFDPVSYPYKTDNDQVKMALLKKERHCRLTSWIVSQIGPEIEEKIRNSSNEIEQIFLYLLLNDVVRASKLAIESKNGHLSVLISYLGSNDPRIRDLAELQLQKWSTGGCSIDKNISKIYKLLSGSPFEGLFSLKELESEFSWLCLLNLTLCYGQIDEYSLESLVQSHLDKFSLPYDDPIGVIFQLYAANENTEKLYKEVRQRTNALDVQFCWYLIQTLRFNGTRVFSKETSDEATFAFAAQLEFAQLHGHSLFVSCFLNDDKAAEDTIKRLVMREITLLRASTNDHILNRLKIPSQLIFNAQALKDRYEGNYLSEVQNLLLGSSYDLAEMAIVTSLGPRLLLSNNPVQNNELKTLREILNEFPDSERDKWSVSINVFEVYLKLVLDNVETQETIDSLISGMKIFYDQYKHCREVAACCNVMSQEIVSKILEKNNPSIGDSKAKLLELPLGQPEKAYLRGEFAQDLMKCTYKI
B5: Seh1 (natural protein, UniProt P53011 1-349, looked up)
chain: MQPFDSGHDDLVHDVVYDFYGRHVATCSSDQHIKVFKLDKDTSNWELSDSWRAHDSSIVAIDWASPEYGRIIASASYDKTVKLWEEDPDQEECSGRRWNKLCTLNDSKGSLYSVKFAPAHLGLKLACLGNDGILRLYDALEPSDLRSWTLTSEMKVLSIPPANHLQSDFCLSWCPSRFSPEKLAVSALEQAIIYQRGKDGKLHVAAKLPGHKSLIRSISWAPSIGRWYQLIATGCKDGRIRIFKITEKLSPLASEESLTNSNMFDNSADVDMDAQGRSDSNTEEKAELQSNLQVELLSEHDDHNGEVWSVSWNLTGTILSSAGDDGKVRLWKATYSNEFKCMSVITAQQ
B6: Sld5 (natural protein, UniProt Q03406 1-294, looked up)
chain: MDINIDDILAELDKETTAVDSTKITQGSSSTTHRDANTIVGSSLDLNDKTQIYVSPQQDFSDLMKSWKNERCSPELLPYPHQLMKRLLNRISMQSQLIENISMGFLDMQNASNANPPMPNESKLPLLCMETELERLKFVIRSYIRCRLSKIDKFSLYLRQLNEDENSLISLTDLLSKDEIKYHDTHSLIWLKLVNDSILKYMPEELQAINDTEGSVNMIDEPDWNKFVFIHVNGPPDGKWNEDPLLQENEFGKPCYTVTIPDLKEEVELTIGSIYVMRYEVIRDLLRDDKVALI
B7: Psf3 (natural protein, UniProt Q12146 1-194, looked up)
chain: MGYYDIDDVLADGTEFPCKFQYDIPGLGYLENNPGRPITKNTKLSLPLWLARILAIVGGDEALVDEEPVPFVELLPPDMFSTKVMNAIKTDPVALDLHSINSHFFSLAIKWIMLFSEKELANVVSELLLQRAQELNHHASSLSIDLNADSTGKNSANTNIATSTFLLKLEEMEKEIYKKSHESYKDTKRWMFKK
B8: Psf1 (natural protein, UniProt Q12488 1-208, looked up)
chain: MYGDLGNKLVLEAKRTKQLYARSNQDVNLPMYHEDIIRNILKEVSNLRKNTEYLKEQQQLGMLDDKVAKCQYFVTLLCMERNKRCLLAYQRLRTDILDSMAWNNNGLDLMSSITFSQQDTNNLSHQEQEYLKEYCDLITDLKSGDLVDIDLSGSLVPPSDVFIDVRVLKDAGEIQTEYGVFNLIKDSQFFVRQSDVERLIQQGYLQKI

For one test, the target named is Nup84-HRV-SpA (S. cerevisiae (endogenous in budding …, UniProt P52891 1-726)). In words: native MS.
Chain of Nup84-HRV-SpA (S. cerevisiae (P52891 whole entry): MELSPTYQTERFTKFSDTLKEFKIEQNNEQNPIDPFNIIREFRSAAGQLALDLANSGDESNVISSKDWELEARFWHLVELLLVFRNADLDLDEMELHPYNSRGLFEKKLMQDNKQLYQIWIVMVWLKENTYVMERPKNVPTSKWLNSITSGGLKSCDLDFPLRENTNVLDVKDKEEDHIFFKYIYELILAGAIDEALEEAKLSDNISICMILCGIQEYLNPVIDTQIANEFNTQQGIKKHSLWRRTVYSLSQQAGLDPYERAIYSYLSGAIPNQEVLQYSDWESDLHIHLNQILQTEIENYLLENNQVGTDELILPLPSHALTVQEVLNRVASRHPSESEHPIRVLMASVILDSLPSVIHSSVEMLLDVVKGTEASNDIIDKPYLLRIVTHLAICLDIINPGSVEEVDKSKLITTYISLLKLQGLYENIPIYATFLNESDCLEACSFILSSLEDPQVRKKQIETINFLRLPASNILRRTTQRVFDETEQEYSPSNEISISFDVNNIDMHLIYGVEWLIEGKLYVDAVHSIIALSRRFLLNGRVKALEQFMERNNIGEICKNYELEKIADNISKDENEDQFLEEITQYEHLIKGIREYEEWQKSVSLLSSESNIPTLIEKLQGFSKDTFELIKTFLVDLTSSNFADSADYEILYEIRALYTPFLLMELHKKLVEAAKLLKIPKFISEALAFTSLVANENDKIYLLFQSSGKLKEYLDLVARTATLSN
As to B1, the “stoichiometry N” value came to 1.

Consider B2, for which the “stoichiometry N” value was found to be 1.

Regarding B3, the “stoichiometry N” value worked out at 1.

On to B4, for which the “stoichiometry N” value stood at 1.

On to B5, for which the “stoichiometry N” value amounted to 1.

In another test the target is T1, Psf2-SpA (S. cerevisiae (endogenous in budding …, UniProt P40359 1-213)).
T1 sequence (looked up): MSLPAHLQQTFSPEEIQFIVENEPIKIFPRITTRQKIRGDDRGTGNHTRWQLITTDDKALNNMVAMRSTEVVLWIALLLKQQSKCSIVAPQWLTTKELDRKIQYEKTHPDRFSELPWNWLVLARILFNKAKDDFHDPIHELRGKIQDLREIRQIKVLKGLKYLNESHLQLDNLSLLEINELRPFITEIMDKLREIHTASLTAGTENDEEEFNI
The test can be described thus: native MS.
B6: the “stoichiometry N” value came to 1.

On to B7, for which the “stoichiometry N” value was found to be 1.

Consider B8, for which the “stoichiometry N” value was determined as 1.
